Test results: PMC3290704 (2012)

Key:
[1] = molecular target: T1, p53 AD1 13-37 (Homo sapiens, UniProt P04637); assay: NMR HSQC titration, local fit SVD
[2] = molecular target: T1, p53 AD1 13-37; assay: NMR HSQC titration, local fit raw
[3] = molecular target: T1, p53 AD1 13-37; assay: NMR HSQC titration, global fit SVD
[4] = molecular target: T1, p53 AD1 13-37; assay: NMR HSQC titration, local fit raw; remark: listed apart in the source
[5] = molecular target: T1, p53 AD1 13-37; assay: NMR HSQC titration, local fit SVD; remark: listed apart in the source
[6] = molecular target: T1, p53 AD1 13-37; assay: NMR HSQC titration, global fit raw
[7] = molecular target: T1, p53 AD1 13-37; assay: NMR HSQC titration, local fit raw with concentration correction

T1 sequence (P04637 13-37): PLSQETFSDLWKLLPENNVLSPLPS

B1: CBP TAZ2 1764-1855 (protein)
chain: SPQESRRLSIQRCIQSLVHACQCRNANCSLPSCQKMKRVVQHTKGCKRKTNGGCPVCKQLIALCCYHAKHCQENKCPVPFCLNIKHKLRQQQ
For B1, which Kd [1] is on record?
Its Kd is 33 µM.

And the Kd [2]?
Its Kd is 27 µM.

What about the Kd [3] of the same binder?
The Kd was 32 µM.

And the Kd [4]?
Its Kd is 448 µM.

What about the Kd [5] of the same binder?
The Kd was 225 µM.

And the Kd [6]?
Its Kd is 180 µM.

And the Kd [7]?
The Kd was 345 µM.
